Data on five molecules can be found in patent publication US20220195055A1 (SHANDONG BOAN BIOTECHNOLOGY, published 2022).

Where two headings read alike, the source gives them in different places.

The target in experiment [1] is T1, CD25 on cells (SU-DHL-1 target cells; PBMC) (UniProt P01589 22-272, limits assumed).
T1 sequence (looked up): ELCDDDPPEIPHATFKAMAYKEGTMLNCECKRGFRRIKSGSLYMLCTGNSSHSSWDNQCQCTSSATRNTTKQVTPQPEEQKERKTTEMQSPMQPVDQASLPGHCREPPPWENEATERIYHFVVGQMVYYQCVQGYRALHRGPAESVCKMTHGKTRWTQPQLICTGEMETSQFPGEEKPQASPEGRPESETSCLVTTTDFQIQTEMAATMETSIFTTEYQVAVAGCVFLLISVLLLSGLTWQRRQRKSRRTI
Nature of the experiment: cell-based or functional assay.

The target in experiment [2] is T2, CD25 protein (Sino Biological, 10165-H08H) (UniProt P01589 22-213).
T2 construct: Bought recombinant protein; It speaks elsewhere of human CD25; also called antigen CD25; IL-2Rα
T2 sequence (looked up): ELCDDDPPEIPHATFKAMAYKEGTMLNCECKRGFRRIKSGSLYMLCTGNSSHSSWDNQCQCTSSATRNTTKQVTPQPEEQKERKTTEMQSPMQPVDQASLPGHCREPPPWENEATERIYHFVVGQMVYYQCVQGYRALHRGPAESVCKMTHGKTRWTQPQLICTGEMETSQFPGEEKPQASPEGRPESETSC
Nature of the experiment: SPR (BIAcore 8K); antibody captured by anti-human IgG Fc, CD25 protein as analyte, 1:1 model. Here is the method: Antibody binding kinetics uses BIAcore8K instrument based on surface plasmon resonance (SRP) technology to measure. Anti-human IgG antibody amino was coupled to a CMS biosensor chip by the GE anti Human IgG Fc amino coupling kit (GE, cat # BR-1008-39) to obtain approximately 1000 response units (RU). For kinetic measurements, the CD25 protein (Sino Biological, 10165-H08H) was diluted 2-fold continuously with HBS-EP+1×(GE, BR-1008-26) buffer, starting at 50 nM, being diluted 2-fold for 4 concentration gradients and setting 0 concentration. The antibody to be detected: 2 μg/ml, sample injection time 70 s, flow rate 5 μL/min, stable for 5 s; CD25 protein: binding for 60 s, flow rate 30 μL/min, dissociation for 450 s; regeneration: regeneration was performed for 30 s with 3M MgCl₂ buffer, Startup 3 times. The association constant (ka) and dissociation constant (kd) were calculated using a simple one-to-one Languir binding model (BIAcore Evaluation Software version 3.2), and the equilibrium dissociation constant (KD) was calculated by the ratio kd/ka.

The target of experiment [3] is T2, CD25 protein (Sino Biological, …). Nature of the experiment: ELISA; CD25 protein coated in a dilution series, antibody at one fixed concentration, anti-human IgG/HRP. The text has this: (§1) The results are shown in FIG. 2A to FIG. 2E and Table 2 to Table 6.
For orientation: ELISA stands for enzyme-linked immunosorbent assay.

For experiment [4], the target named is T1, CD25 on cells (SU-DHL-1 target cells; …). Nature of the experiment: cell-based or functional assay. The source holds these as a separate data set.
The target in experiment [5] is T2, CD25 protein (Sino Biological, …). Nature of the experiment: ELISA; CD25 protein coated in a dilution series, antibody at one fixed concentration, anti-human IgG/HRP.
Excerpt: as §1
The source holds these as a separate data set.

Experiment [6] concerns the target T1, CD25 on cells (SU-DHL-1 target cells; …). Nature of the experiment: cell-based or functional assay. The source holds these as a separate data set.
For experiment [7], the target named is T2, CD25 protein (Sino Biological, …). Nature of the experiment: ELISA; CD25 protein coated in a dilution series, antibody at one fixed concentration, anti-human IgG/HRP.
Excerpt: as §1
The source holds these as a separate data set.

For experiment [8] the target is unchanged. The experiment is described as above.
Excerpt: as §1
This is another data set of the same source.

The target is the same in experiment [9]. The experiment is described as above.
Excerpt: as §1
This is another data set of the same source.

B1: CD25Q14-CA721-IgG1 (antibody, V domains shown)
VH: QVQLVQSGAEVKKPGESLKISCKGSGYSFANYWIVWVRQMPGKGLEWMGIIYPDDSETRYSPSFQGQVTFSADKSISTAYLQWSSLKASDTAMYYCTRGPYYSDYWGQGTLVTVSS
VL: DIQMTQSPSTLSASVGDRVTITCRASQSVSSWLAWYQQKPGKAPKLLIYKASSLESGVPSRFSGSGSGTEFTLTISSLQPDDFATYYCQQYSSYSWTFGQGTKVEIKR
notes: IgG1 expressed in HEK293
The Kd is the equilibrium constant for the complex coming apart. Read a low Kd as higher affinity. Broadly, the koff is a measure of how fast the partners let go of each other. Low values mean a long-lived complex, high ones a short-lived complex. One may read the kon as the rate constant with which the complex forms. Read a high kon as fast association. The EC50 is the midpoint of the concentration-response curve. Higher therefore signals a less potent agent. As to B1, in experiment [1], the “EC50 of simulated killing activity (Jurkat effector reporter cells, SU-DHL-1 target cells, luminescence)” value (“EC50 of simulated killing activity” below) is 0.288 µg/mL. Besides, in experiment [2], the affinity, expressed as Kd, was 0.536 nM; the koff amounted to 0.000365 s⁻¹; the kon was found to be 680000 M⁻¹ s⁻¹. This molecule showed an EC50 in experiment [3] of 0.00325 µg/mL.

B2: CD25Q14-CA707-IgG1 (antibody, V domains shown)
VH: EVQLVQSGAEVKKPGESLKISCKGSGYSFSNYWIGWVRQMPGKGLEWMGIISPGDSTTKYSPSFQGQVTFSADKSTSTAYLQWSSLQASDTAMYYCVRGPYYLDYWGQGTLVTVSS
VL: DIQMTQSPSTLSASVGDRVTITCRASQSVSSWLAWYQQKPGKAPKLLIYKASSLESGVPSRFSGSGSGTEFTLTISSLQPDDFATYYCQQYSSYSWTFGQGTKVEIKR
notes: IgG1 expressed in HEK293
For B2, the “EC50 of simulated killing activity” value in experiment [1] was 0.248 µg/mL. In experiment [2], binding was put at a Kd of 2.85 nM, the koff stood at 0.000944 s⁻¹ and the kon was 331000 M⁻¹ s⁻¹. Further, the EC50 in experiment [3] came to 0.00641 µg/mL.

B3: CD25Q8-BT942-IgG1 (antibody, V domains shown)
VH: QVQLVQSGAEVKKPGSSVKVSCKASGGTFSSDAINWVRQAPGQGLEWMGRIIPIFGVADYAQKFQGRVTLTADKSTSTAYMDLSSLRSEDTAVFYCARERGDYSNFWYFDLWGRGTLVTVSS
VL: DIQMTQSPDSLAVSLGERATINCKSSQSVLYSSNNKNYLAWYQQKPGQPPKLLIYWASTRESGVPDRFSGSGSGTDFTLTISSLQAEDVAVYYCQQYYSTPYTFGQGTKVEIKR
notes: IgG1 expressed in HEK293
For B3, the “% PSTAT5 in CD3 positive T cells of PBMC after IL2, with 10 µg/mL antibody” value (from here on “% PSTAT5 in CD3 positive T cells of PBMC”) in [4] worked out at 16.5%. Further, in [2], binding was put at a Kd of 3.79 nM, the koff is 0.000339 s⁻¹ and the kon is 89600 M⁻¹ s⁻¹. In [5], this molecule showed an EC50 of 0.00226 µg/mL.

B4: CD25Q11-CT848-IgG1 (antibody, V domains shown)
VH: QVQLQQWGAGLLKPSETLSLTCAVYGGSFSGSYWSWIRQSPRKGLEWIGEIDHSGSTIANPSLKSRITISLDTSKNQFFLQLRSMTAADTAVYYCARGEAFDIWGQGTMVTVSS
VL: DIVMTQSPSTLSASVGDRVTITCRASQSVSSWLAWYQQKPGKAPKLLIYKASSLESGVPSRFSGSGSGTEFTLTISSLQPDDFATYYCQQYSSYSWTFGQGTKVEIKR
notes: IgG1 expressed in HEK293
For B4, in experiment [4], the “% PSTAT5 in CD3 positive T cells of PBMC” value stood at 15.8%. In experiment [2], this molecule came in with a Kd of 3.09 nM, a koff of 0.00218 s⁻¹ and a kon of 705000 M⁻¹ s⁻¹. The EC50 in [5] was found to be 0.00916 µg/mL.

B5: CD25-MA251-IgG1 (antibody, V domains shown)
VH: QVQLKESGPGLVAPSQSLSITCTVSGFSLTSYGIQWVRQPPGKGLEWLGVIWAGGSTNYNSALMSRLSISKDNSKSQVFLKMNSLQTDDTAMYYCARAYGYDGSWLAYWGQGTLVTVSS
VL: QIVLSQSPAILSASPGEKVTMTCRASSSVSYMHWYQQKPGSSPKPWIFATSNLASGVPARFSGSGSGTSYSLTINRVEAEDADTYYCQQWSSNPPTFGGGTKLEIKR
notes: also called CD25Q-MA251; control antibody
On to B5, for which the “EC50 of simulated killing activity” value in experiment [6] was 0.361 µg/mL; in experiment [1], 0.255 µg/mL. For the same molecule, the “% PSTAT5 in CD3 positive T cells of PBMC” value in [4] turned out to be 18.5%. Besides, the affinity in [2], expressed as Kd, was 5.19 nM. Moreover, the off-rate (koff) in [2] amounted to 0.000912 s⁻¹. This molecule also came in with a kon in [2] of 176000 M⁻¹ s⁻¹. For the same molecule, the EC50 in experiment [7] is 0.0106 µg/mL; in experiment [8], 0.0141 µg/mL; in experiment [9] it was 0.017 µg/mL; in experiment [3], 0.0121 µg/mL; in [5], 0.0245 µg/mL.
